# Data as given in patent US20090098111A1 (CALIFORNIA INSTITUTE OF TECHNOLOGY, published 2009).
# Legend:
# [1] = molecular target: T1, Xatr (endogenous Xenopus ATR in egg extracts) (Xenopus laevis, UniProt Q9DE14 1-2654); experiment: GST pull-down from Xenopus egg extracts, immunoblot (FIG. 4A)
# T1 construct: Endogenous protein of whole or mock-depleted egg extracts, where endogenous Xatrip is also present
# Protocol: The extracts were filtered through a G25 Sephadex column to remove endogenous glutathione and incubated with glutathione agarose beads. The beads were isolated and immunoblotted for Xatr (top) and Xatrip (bottom). In FIG. 4B, egg extracts (lane 1) were immunodepleted with control (lane 2) or anti-Xatrip antibodies (lanes 3 and 4). For lane 4, recombinant XatripΔN222-FLAG was added back later. Extracts were immunoblotted with anti-Xatr (top) and anti-Xatrip antibodies (bottom). […] Binding of Xatr to glutathione beads was determined by immunoblotting as in FIG. 4A. In FIG. 4D, Xatr was immunoprecipitated from mock-depleted (lanes 1 and 2) and Xatrip-depleted extracts (lanes 3 and 4). Twice as much Xatrip-depleted extract was immunoprecipitated due to its reduced content of Xatr. […] Samples were also immunoblotted for Xatr (top) and Xatrip (middle).
# [2] = molecular target: T1, Xatr (endogenous Xenopus ATR in egg …); experiment: GST pull-down from Xenopus egg extracts, immunoblot
# T1 sequence (Q9DE14 whole entry): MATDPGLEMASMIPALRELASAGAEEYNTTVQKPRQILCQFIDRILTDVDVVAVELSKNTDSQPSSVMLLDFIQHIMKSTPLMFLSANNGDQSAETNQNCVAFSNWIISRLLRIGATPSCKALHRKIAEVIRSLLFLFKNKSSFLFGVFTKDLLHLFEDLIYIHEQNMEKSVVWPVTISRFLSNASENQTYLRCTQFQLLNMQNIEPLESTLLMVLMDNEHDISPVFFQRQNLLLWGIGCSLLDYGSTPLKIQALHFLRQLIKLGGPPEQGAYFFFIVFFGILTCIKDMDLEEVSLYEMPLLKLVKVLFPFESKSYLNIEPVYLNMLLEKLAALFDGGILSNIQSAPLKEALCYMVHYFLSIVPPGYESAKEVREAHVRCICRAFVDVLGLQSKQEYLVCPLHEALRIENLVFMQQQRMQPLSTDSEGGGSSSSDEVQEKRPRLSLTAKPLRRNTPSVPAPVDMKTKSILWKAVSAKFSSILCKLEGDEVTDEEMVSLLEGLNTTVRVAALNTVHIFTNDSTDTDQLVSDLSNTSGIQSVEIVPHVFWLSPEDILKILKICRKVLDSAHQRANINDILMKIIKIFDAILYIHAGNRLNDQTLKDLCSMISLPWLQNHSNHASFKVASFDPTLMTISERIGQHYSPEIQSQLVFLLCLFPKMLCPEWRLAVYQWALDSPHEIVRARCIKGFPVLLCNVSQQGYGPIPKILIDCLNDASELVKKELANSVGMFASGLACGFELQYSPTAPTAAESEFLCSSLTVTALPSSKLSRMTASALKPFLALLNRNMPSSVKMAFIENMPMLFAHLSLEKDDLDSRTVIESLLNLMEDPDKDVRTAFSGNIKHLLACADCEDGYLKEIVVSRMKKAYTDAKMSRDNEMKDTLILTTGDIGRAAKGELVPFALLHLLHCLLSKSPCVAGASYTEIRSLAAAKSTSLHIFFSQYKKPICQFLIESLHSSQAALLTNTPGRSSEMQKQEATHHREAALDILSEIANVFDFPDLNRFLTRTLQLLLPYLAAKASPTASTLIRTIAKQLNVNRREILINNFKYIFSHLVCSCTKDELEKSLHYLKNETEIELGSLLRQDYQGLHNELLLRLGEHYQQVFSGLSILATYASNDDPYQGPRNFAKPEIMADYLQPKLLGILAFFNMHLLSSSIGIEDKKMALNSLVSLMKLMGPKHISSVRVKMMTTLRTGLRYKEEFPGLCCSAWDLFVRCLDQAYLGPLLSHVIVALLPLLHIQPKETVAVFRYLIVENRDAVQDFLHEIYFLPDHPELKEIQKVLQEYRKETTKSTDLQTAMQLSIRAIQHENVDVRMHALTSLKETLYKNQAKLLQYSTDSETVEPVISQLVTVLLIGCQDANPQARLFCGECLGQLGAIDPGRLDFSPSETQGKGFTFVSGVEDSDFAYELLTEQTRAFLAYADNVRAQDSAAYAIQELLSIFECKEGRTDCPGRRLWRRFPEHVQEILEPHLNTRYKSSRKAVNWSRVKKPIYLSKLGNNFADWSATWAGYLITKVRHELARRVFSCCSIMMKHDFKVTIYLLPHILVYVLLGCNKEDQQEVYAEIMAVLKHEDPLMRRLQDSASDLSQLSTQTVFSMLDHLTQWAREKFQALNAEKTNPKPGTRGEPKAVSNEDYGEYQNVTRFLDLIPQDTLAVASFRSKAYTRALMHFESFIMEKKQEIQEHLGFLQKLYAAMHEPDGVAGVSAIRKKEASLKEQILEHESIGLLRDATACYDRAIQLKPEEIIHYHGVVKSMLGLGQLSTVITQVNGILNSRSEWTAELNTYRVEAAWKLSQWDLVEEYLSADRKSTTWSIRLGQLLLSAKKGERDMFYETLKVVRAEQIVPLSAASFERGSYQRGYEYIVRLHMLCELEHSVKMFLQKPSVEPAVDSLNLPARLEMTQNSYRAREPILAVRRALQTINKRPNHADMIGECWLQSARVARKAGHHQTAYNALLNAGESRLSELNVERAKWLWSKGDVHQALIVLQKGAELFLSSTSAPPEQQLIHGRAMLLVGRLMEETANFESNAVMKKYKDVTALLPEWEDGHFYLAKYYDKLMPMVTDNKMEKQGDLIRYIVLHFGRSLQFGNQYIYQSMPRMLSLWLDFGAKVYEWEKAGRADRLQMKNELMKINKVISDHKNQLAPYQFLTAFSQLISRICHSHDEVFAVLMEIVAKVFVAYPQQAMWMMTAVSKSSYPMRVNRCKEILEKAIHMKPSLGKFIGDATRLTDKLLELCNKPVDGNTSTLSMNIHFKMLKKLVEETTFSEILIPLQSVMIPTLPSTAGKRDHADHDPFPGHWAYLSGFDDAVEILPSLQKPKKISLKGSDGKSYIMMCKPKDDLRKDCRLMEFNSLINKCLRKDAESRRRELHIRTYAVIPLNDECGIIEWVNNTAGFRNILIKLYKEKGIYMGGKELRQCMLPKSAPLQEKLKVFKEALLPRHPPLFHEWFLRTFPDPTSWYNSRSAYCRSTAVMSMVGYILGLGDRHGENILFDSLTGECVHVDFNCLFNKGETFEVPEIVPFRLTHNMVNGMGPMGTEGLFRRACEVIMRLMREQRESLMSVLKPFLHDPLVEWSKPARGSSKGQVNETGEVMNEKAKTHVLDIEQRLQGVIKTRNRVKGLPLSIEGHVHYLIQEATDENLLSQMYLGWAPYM
binder,measurement,setting,value
"GST-XtopBP1 (1197-1513) (other, BRCT-containing fragment; not shown: glutathione-S-transferase (GST) fusion partner) EFEPKSAMRTPVIENNLQSPTKPDHLTPTPQAPSIAFPLANPPVAPQPREKPVQPFSKEETLKERRFQLSSLDPQERIDYSQLIEELGGVVIEKQCFDPSCTHIVVGHPLRNEKYLASMAAGKWVLHRSYLEACRAAKRFIQEEDYEWGSISILSAVTNINPQQRMLAEAAMRWRKKLQGIKQNMGIAEGAFSGWKVILNVDQTKEPGFKRLLQSGGAKVFAGHSSPLFKEASHLFADFSKLKPDEPRVNVAEAAAQGVNCLKPEYIADYLMKELPPPMNNYCLPDAIPYVRVTGTGLSRKRKTSGDVSDVKRSRHY",binding result,[1],no binding
"GST-XtopBP1 (1-348) (other, BRCT-containing fragment; not shown: glutathione-S-transferase (GST) fusion partner) MASSENEPFCVKFIKSPENSEYFFKAYEAIKQIQSDESLQLTEEREALLLKEKDKSLYICDPFSGAAFSHLKKLGCRIVGPQVVIFCMENQRRVPRAEYPVYNMAMADVTISCTSLDKETREDVHHYVQIMGGCVYRDLNVSVTHLIAGEVGSKKYLVAASLEKPILLPSWVKELWEKSNQRIIRYSDVNMTEYLCPIFRGCTICVTGLSSLDRKEVQRLTALHGGEYTGQLKMNESTHLIVQEAKGQKYECARKWNVHCISVQWFFDSIEKGFCQDETMYKIEPASTIKSVPDTSTPTGGNSKPNSRALYDVSQISNISTSCVNESAFNSAMASRLDPPADTLENLD",binding result,[2],no binding
"GST-XtopBP1 (333-646) (other, BRCT-containing fragment; not shown: glutathione-S-transferase (GST) fusion partner) MASRLDPPADTLENLDISSLQAPDDLLDGCRIYLCGFGGRKLDKLRKLINNGGGVRFNQLTGDVTHIIVGETDEELKQFLNKTQHRPYVLTVKWLLDSFAKGHLQPEEIYFHSSYQQTEMPSPFEPAINLTANKMSSTRGPLNHTRNHQADEDLLSQYTENNSTLIEDEHPKTSNTNSISQMSMHEDMTTCTSQSGLADTSTIIEGGLFSRKQFMVLGFLEEDEACIIDIIKKSAGKVLSSQKRAIADYAVVPLLGCEVESTVGEVVTNAWLGMCIEQEKLLDPHSNALFTPVPFLEGSTPLRECVLSVSQFMG",binding result,[2],no binding
"GST-XtopBP1 (623-984) (other, BRCT-containing fragment; also called GST fusion of the 623-984 segment from XtopBP1; not shown: glutathione-S-transferase (GST) fusion partner) TPVPFLEGSTPLRECVLSVSQFMGAERDSLVYLAGLLGAKVQEFFVRKANPKKGMFASTHLVLKDAEGSKYEAAKKWNLPAVTMNWLLQCARTGRKADEDSYLVDNVPEEDKDESFISQTYKPQAIRLSMHAPCHLENHPEALTKAAVTPLDMNRFKSKAFQSVISQHNKNPQTSGGESKVLQREPSLHLDTPSKFLSKDKLFKPSFDVKDALAALETPGGPNQKNRTQSTPLSEVIGRNLQLAIANSTRQTAAVTASPQLKAAEKKEFDNSKLLINVVICVSKKLIKKQGELNGIAASLGAEYRWCFDESVTHFIYHGRQNDMSREYKSVKERSGIYIVSEHWLFACSEQQKRVPEALYPH",binding result,[2],no binding
